The nanobody polyreactivity screen of Harvey et al. (2022)

Experiment: yeast display, Sf9 membrane polyspecificity reagent, FACS + sequencing; frameworks hold sequencing errors
How it was run: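 Synthetic nanobody libraries on Saccharomyces cerevisiae BJ5465 were galactose-induced for 36–48 hours, stained 1 hour at 4 °C with 10% biotinylated, detergent-solubilized Sf9 membrane reagent and enriched on streptavidin microbeads. FACS then separated cells into low and high (top ~1%) gates by anti-HA (expression) and streptavidin (reagent binding) fluorescence. Genes were colony-PCR amplified, MiSeq 2 × 250 sequenced and CDR-length filtered. A clone's polyreactivity label is that of its gate of origin.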

Sequence | polyreactivity (PSR sort gate)
QVQLVESGGGLVQAGGSLRLSCAASGSILGDYAMGWYRQAPGKEREFVAAIDGSDGSTYYADSVKGRFTISRDNAKNTVYLQMNSLKPEDTAVYYCNVVRQGKREFDYWGQGTQVTVSS | low polyreactivity
QVQLVESGGGLVQAGGSLRLSCAASGLIFGYYALGWYRQAPGKDRELVAAINSGGSTYYADTVKGRFTISRDNAKNTVYLQMNSLKPEDTPVYNCAARYYSEYDYWGHGTQVTVSS | low polyreactivity
QVQLVDSGRGFVQAGGSLRLSCAASGSTYPGNEMGRSRQAPGKESELVAAIRWSGGSTYYADSVKGRFTISRDNAKNNVYLQMNSLKPEDTAVYYCAADYLIPDTYLFQAYVGFEYWGQGTLVTVSS | low polyreactivity
QVQLEESGGGLVQAGGSLRLTCAASGSILVYNAMGWYRQAPGKERELVAGISSSGTRTYYADSVKGRFTISRDNAKITFYLQMNSLKPEDTAVYYCNALPVRGHQEYDSWGQGTQVNVSS | high polyreactivity
QVQLVESGGGLVQAGGSLRLSCAASGSTFITNAMGGYRQAPGKERELVATISRSGGRTYYADSVKGRFTISRDNAKNSVYLEMNSLNPEDTAVFYCAKRYGSKFEYWGLGTQVTVSS | high polyreactivity
QVQHVESGGGLVQAGGSLRLSCAASGRTFRGNAMGWDRQAPGKERELVAAIRYRGGSTYYADSVKGRFTISRDNAKNTVYLQMNSLKPEDTAVYYCARRYTVHTQHYDYWGQGTQVTVSS | high polyreactivity
QVQLVESGGGLVQAGGSLRLSCAASGRTFSYNAMGWYRQAPGKERELVAAISSGGSTYYADSVKGRFTISRDNAKNTVYLQMNSLKPEDTAVYYCAADSPSVWGYRYDYDYWGQGTQVTVSS | low polyreactivity
QVQLVESGGGLVQAGGSLRLSCAASGFTFRVNAMGWYRQAPGKERELVAVISHSGGSTYYADSVKGRFTISRDNAKNTVYLQMNSLKPEDTAVYYCAKDRVVLYKYYRVDYWGQGTQVTVSS | low polyreactivity
QVQLVESGGGLVHAGGSLRLSCAASGRTFLLYAMGWYRQAPGKERELVARITGRGGRTYYADSVKGRFTISRDNAKNTVYLQMNSLKPEDTAVYYCNAKGYQGQWERYDYWGQGTQVTVSS | high polyreactivity
QVQIVESGGGLVQAGGRLRLSCAASGSIFSIYDMGWYRQAPGKERELVAAITWGGASTYYADSVKGRFTISRDNAKNTVYLQMNSLKPEDTAVYYCAADSLTWNGTYYYWGQGTQVTVSS | high polyreactivity
QVQLQESGGGLVQAGGCLRLSCAASGTSFDPDYMGWYHQAPGKERELVASISLGRITYNADSVKGRFTINRDNAKNTVYLQMNSLKPEDTAVYYCAVRVETIYYYSYWGQGTQVTVSS | high polyreactivity
QVQLVESGGGLVQAGGSLRLSCAATGSIFASYAMGWYRQAPGKERELVASITRVDSTNYADSVKGRFTISRDNAKNTVYLQMNSLKPEDTAVYYCAADYYIVLTKSDGLFGSWGQGTQVTVSS | low polyreactivity
QVQLVESGGGLVQAGGSLRLSCAASGFIFDYYAMGWYRQAPGTEREFVAAITWDGGSTYYADSVKGRFTISRDNAKNTVYLQMNSLKTEDTAVYYCAAETWGEYGYWGQGTQVTVSS | low polyreactivity
QVQLVESGGGLVQAGGSLRLSCAASGTTFNAYAMGWYRQAPGKDRELVAAISTSGGRTYYADSVKGRYTISRDNAKNTVYLQMNSLKPEDTAVNYCAAVLGRSPGLNYWGQGTQVTVSS | high polyreactivity
QVQLVESGGGLVQAGGSLRLICAASGYIFTYNAMGWYRQAPGKERELVAAISSGDGRTYYADSVKGRFTISRDNAKNTVYLQMNSLTPEDTAVYYCNATRVVYRQAYLYGYDYWGQGTQVTVSS | low polyreactivity
QVQLVESGGGLVQAGGSLRVSCAPSGIIFGGNVMGWYRQAPGKERELVAGITSTGGRTYYADSVKGRFTISRDNAKNTVYLQMNSLKPEDTAVYYCAAVSTLVRGNFNRIRYGYWGHGTQVTVSS | high polyreactivity
QVQLVESGGGLLKAGRSLRLSCAASGRIFGYYAMGWYRQAPGKERELVAAISTGGGRTYYADSVKGRFTISRDNAKNTVYLQMNSLKPEDTAVYYCAARLKWGWPTYDYWGQGTQVTVSS | high polyreactivity
QVQLVESGGGLVQAGGSLRLSCAASGSTFAHYTMGWYRQAPGKERELVAAITRSGGSTYYADSVKGRFTISRDNAKNKVYLQMNSLKPEDTAVYYCAATRQWNILRYDYWGQCTQVTVSS | low polyreactivity
QVQLVESWGGLFQAGGSLRLSCAASGRIWWNAMGWYIQSPGKERELVAAIRWSGGITRYADSVKGRFTFSGDNAKNTVYLQMKSLKPEDTAVYYCAARRNTVTGYQYYYWGQGTQVSVSS | high polyreactivity
QVQLVESGGGLVQAGGSLRLSCAASGRIISHYAMGWYRQAPGKDRELVAAISRSGVSTYYADSVKGRFTISRDNAKNTVYLQMNSLKPEDTAVYYCNRRYDRGPYDYWGQGTQVTVSS | low polyreactivity
QVQLEESGGGLVQAGGSLRLSCAASGFTFWLYAMGWYRQAPGKEREFVAAISTSGGSTYADSVKGRFTISRDNAKNTVYLQMNSLKPEDTAVYYCNAGYLLYYDYHLFYWGQGTQVTVSS | low polyreactivity
QDKLVESGGGLVQAGGSLRLSCAASGSILGGYAMGWNRPAPGKAREFVAAISRRGASTFYADSVKGRFTISRDNAKNTVYLQMNCLKPEDTAVYYCNARAYGRIDGHSATFGYWGQGTQVTVSS | high polyreactivity

Sequence | polyreactivity (PSR sort gate)
QVQLVESGGGLVQAGGSLRLSCAASGRIFVDYAMGWERQAPGKERELVAAITYGGGSTHYADSVKGRFTISRDNAKNTVYLQMNSLKPEDTAVYYCAADLFYHSYGYEYWGQGTQGTVSS | low polyreactivity
QVQLVESGGGLVQAGGSLRLSCAASGFIFPVYAMGWYRQAPGKERELVAAITDSGDSTYYADSVKGRFTISRDNAKNTVYLQMNSLKPEDTAVYYCAAQVQYPRWYRSGKYDYWGQGTQVTVSS | low polyreactivity
QVQLVESGGGLVQAGGSLRLSCAASGSIMYVYAMGWYRQAPGKERELVAVITSGGSTNYAESVKGRFTISRDNAKNTVFLQMNSLKPEDTAVYYCAADPYSVYGGDYWGQGTQVTVSS | low polyreactivity
QVQLVESGGGLVQAGGSLRLSCAASGSTFRYYAMGRYRQAPGKERELVAVISTSGNTYYADSVKGRFTISRDNAKNTVYLQMNSLKPEDTAGYYCAAGGVGGQISQEYDYWGQGTQVTVSS | low polyreactivity
QVQLVVSGGGLVQQGGSLRLSCAASGTFRYYTMGWYRQAPGKERELVAAISRSGGRSYYADSVTGRCTISRDNAKNTVDLPMNSLKPEDTAVYYCAARYKLYYPDYYYWGQGTQVTVSS | high polyreactivity
QVQLVESGGCLVPAGGSLRLSCAASGSIFSYYAMGWYRQAPGKERELVAAITVRGGSTYYADSVKGRFTISRDNAKNTVYLQMNSLKPEDTAVYYCAADWLDESFSYGPYYYWGQGTQVTVSS | low polyreactivity
QVQLVESGGGLVQAGGSLRLSCAASGSIFFDGNAMGWYRQAPGKERELVAAISVSGGSTYYADSVKGRFTISRDNAKNTVYLQMNSLKPDDTAVYYCAKFPSKSYVPGDYWGQGTQVTVSS | low polyreactivity
QVQLVESGGGLVQAGGSLRLSCAASGSIFVLYAMGWYRQAPGKERELVAAITSAGSTYYADSVKGRFTISRDNAKNTVYLQMNSLKPEDTAVYYCAARRGASQRRYNYWGQGTQVTVSS | high polyreactivity
QDQLVESGGGLVQAGGSLRLSCAASGSTFQTYAMGWYRQAPGKEREVVAAISFNGGSTYYADSVKGRFTISRDNAKNTVYLQMNSLKPEDTAVYSCAVEYTWASALYDGRHDYWGQGTQVTVSS | high polyreactivity
QVQLVESGGGLVQAGGSLRLSCAASGSIFPRNAMGWYRQAPGKERELVAAISWRGGRTYYADSVKGRFTISRDNAKKTVYLQMNSLNPEDTAVYYCSEQYSRWKRGEYYLSSSYGYWGQGTQVTVSS | high polyreactivity
QVQLVESGGGLVQAGGSLRLSCAASGFIFRRYVMGWYRQAPGKERELVAAISYGGGSTYYADSVKGRFTISRDNAKNTVYLQMNSLKPEDTAVYYCAARVYYDAYDYWGQGTQVTVSS | high polyreactivity
QVQLVESGGGLVQAGGSLRLRGAASGSTFIFNVRGWYRQAPGKERELVAVISWSGGSTYYADSVKGRFTISRDNAKNTVYLQMNSLKPEDTAVYYCARDQTFGPSPYDWYYYPGYDYWGQGTQVTVSS | low polyreactivity
QVQLVESGGGLVQAGGSLRLSCAASGLTFYINDMGWYRQAPGKERELVAAITRGGSTNYADSVKGRLTISRDNAKNTVYLQMNSLKPEDTAVYYCAAGARYGYGYWGHGTQVTVSS | high polyreactivity
QVQLVESGGGLVQAGGSLRLSCAASGITFQYNAMGWYRQAPGKERELVAAINYSGGSTYYADSVKGRYTISRDNAKNTVYLQMNSLKPEDTAVYYCAKDGTDYSHRPGKWEFDSWGQGTQVSVSS | low polyreactivity
QVQLVESGGGLVQAGGRLRLSCAASGLTFGRYAMGWYRQAPGKERELVAVINGSGGNTYYADSVKGRFTISRDNAKNTVYLQMNSLKPEDTAVYYCAARRTVQYTLYYYPDYNYWGQGTQVTVSS | low polyreactivity
QVQLVESGGGLVQAGGSLRLSCAASGFILRYNAMGWYRQAPGKEREFVAAITRGATTTYADSVKGRFTISRDNAKNTVYLQMNRLKPEDTAVYYCAKRYHGYISQGQLWERIYDYWGQGTQVTVSS | low polyreactivity
QVQLVESGGGLVQAGGSLRLSCAASGRIFGSFAMGWYRQAPGKERELVAAITKRGGRTYYADSVKGRFTISRDNANNTVYLQMNSLKPEDTAVYYCRIASYDYWGQGTQVTVSA | high polyreactivity
QVQLVESGGGLVQAGGSLRLSCAASGIIFTSYVMGWYRQAPGKERELVAAISSDGGSTYYADSVKGRFTISRDNAKNTVYLQMNSLKPEDTAVYYCAVDWLEIGDTGFDYWGQGTQVTVSS | low polyreactivity
QVQLVESLGGLVQAGGSLRLSSAASGSIFRRYAMGWYREAPGKERELVAAITSGDTTKYADSLKGRFTISRDNAKNNVYLHMNSLKPEDTAVYYCNKKGWPRFVHGFLRRDDYWGQGTQVTLSS | low polyreactivity
QVQLVESVGGLVQAGGSLRLSCAASGFTFYRYAMGWYRQAPGKERELVAAISWSGGSTYYADSVKGRFTISRDNAKNTVYLQMNSLKPEDTAVYYCAARGGYYDYYYWGQGTQVTVSS | high polyreactivity
QVQLVESGGGLVQAGGSLRLSCAASGRTFRYYALGWYRQAHGKERELVPRITRGATTNYADSVKGRFTISRDNAKNTVYLQMNSLKPEDTAVYYCAVTPLYGSDRRGWFSSDYWGQGTHVTVSS | high polyreactivity
